# In paper PMC10866649:
# Several values for one entry are separate records, joined by “and”; a condition that tells them apart may be missing. Equal values may be shown once.
# Assays:
# [1] = molecular target: Human IgG1 Fc bearing the Abdeg mutations (Fc^Abdeg, efgartigimod) (human); assay: SPR + BLI; Fc immobilised on chips / captured on biosensors; human or mouse FcRn at 1,600 nM to 50 nM in 2-fold dilutions, pH 6.0; Biacore 3000 and Octet K2 are both named
# [2] = molecular target: Wild-type human IgG1 Fc (human); assay: SPR + BLI; Fcs immobilised on chips or captured on biosensors; human or mouse FcRn at 1,600 nM to 50 nM in 2-fold dilutions, pH 6.0; Biacore 3000 and Octet K2 both named
# [3] = molecular target: Human IgG1 Fc bearing the Abdeg mutations (efgartigimod) (human); assay: as above
# [4] = molecular target: Human IgG1 Fc bearing the F241A mutation, produced in CHO-K1 cells coexpressing hST6GAL1 and hB4GALT1 (human); assay: as above
# [5] = molecular target: Specific ICAM-3–grabbing non-integrin-related-1 (SIGN-R1; CD209b) (UniProt Q8CJ91); assay: flow cytometry on cells (SIGN-R1+/+ murine BMDMs); settings: type I FcγRs blocked; PBS control = 1; read off a plot
# Chain of Specific ICAM-3–grabbing non-integrin-related-1 (SIGN-R1; CD209b) (Q8CJ91 whole entry): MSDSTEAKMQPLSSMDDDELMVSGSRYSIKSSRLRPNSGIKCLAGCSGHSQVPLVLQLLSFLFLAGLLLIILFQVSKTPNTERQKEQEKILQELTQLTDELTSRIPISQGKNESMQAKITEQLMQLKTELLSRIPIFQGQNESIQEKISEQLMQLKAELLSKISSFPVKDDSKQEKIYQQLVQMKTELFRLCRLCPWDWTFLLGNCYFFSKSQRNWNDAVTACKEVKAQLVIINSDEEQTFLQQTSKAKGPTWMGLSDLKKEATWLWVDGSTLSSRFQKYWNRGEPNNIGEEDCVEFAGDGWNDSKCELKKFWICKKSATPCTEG
# Chain of Mouse neonatal Fc receptor (FcRn) (Q61559 22-297): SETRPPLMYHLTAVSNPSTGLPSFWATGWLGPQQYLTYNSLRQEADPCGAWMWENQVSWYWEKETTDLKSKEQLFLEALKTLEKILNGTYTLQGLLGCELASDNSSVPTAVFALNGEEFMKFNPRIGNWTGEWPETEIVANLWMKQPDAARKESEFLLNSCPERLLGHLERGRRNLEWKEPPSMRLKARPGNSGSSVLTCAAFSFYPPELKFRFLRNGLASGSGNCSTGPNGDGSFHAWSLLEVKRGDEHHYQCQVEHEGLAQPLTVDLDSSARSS
# Chain of Mouse neonatal Fc receptor (FcRn) (P01887 21-119): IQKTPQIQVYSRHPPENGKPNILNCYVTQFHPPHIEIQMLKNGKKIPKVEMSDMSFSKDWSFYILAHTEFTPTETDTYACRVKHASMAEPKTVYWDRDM
# Chain of Human neonatal Fc receptor (FcRn) (P55899 24-297): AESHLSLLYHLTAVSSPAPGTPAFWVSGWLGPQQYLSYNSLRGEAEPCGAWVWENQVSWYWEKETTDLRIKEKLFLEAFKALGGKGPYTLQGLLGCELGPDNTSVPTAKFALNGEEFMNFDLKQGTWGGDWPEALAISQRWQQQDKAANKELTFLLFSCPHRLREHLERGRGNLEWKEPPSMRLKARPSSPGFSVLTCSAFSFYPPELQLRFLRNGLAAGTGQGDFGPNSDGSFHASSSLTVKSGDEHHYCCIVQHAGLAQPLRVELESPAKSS
# Chain of Human neonatal Fc receptor (FcRn) (P61769 21-119): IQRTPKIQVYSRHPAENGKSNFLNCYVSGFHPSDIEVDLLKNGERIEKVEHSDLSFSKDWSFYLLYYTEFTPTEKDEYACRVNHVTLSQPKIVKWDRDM
substance,measurement,setting,value
Mouse neonatal Fc receptor (mFcRn) (from UniProt Q61559 22-297),fold enhanced affinity compared with human FcRn,[1],> 10 fold
same,fold lower KD than that of Fc^F241A/B4ST6,[1],267 fold
Mouse neonatal Fc receptor (FcRn) (from UniProt Q61559 22-297; P01887 21-119),Kd,[2],51.6 nM and 73.2 nM and 85.8 nM
same,Kd,[3],0.27 nM and 0.28 nM and 0.26 nM
same,Kd,[4],50.8 nM and 77.5 nM and 86.7 nM
Human neonatal Fc receptor (FcRn) (from UniProt P55899 24-297; P61769 21-119),Kd,[3],6 nM
same,Kd,[4],131 nM and 260 nM and 208 nM
Human neonatal Fc receptor (hFcRn) (from UniProt P55899 24-297),fold enhanced affinity compared with Fc^F241A and Fc^WT,[1],96 fold
same,fold lower KD than that of Fc^F241A/B4ST6,[1],39 fold
Wild-type human IgG1 Fc (Fc^WT) F241A,response (fold change in MFI (normalized to PBS)),[5],1.6
